In the DeepSol protein solubility set:

Assay: soluble on expression in E. coli; label from the status in PepcDB or PDB records

Row | Sequence | soluble on expression in E. coli
1 | MKAILQRSIALLALAAGMSSVACADEVKMRVLGWYGNQPQSQQVERPFWKDLPKRSNGAFSANFRTIDELGLKGFESLRTLQSGAFDVVSFQISFVGGDAPVLMGADLPGAAFDFDQLQKNLDAYRPILEKELNDRFKAKLLTAWSFPFQILYCKGDIKTLDDLKGKKVRVSGTYTAKMVADLNAAGATLAGPEVYQGLMQGVVDCAITGSQYGNSNDWFEVAHSLSPIPLGGAGVVLQVARNAFWDKLSADQQAALSAEMKQLETALWDISRKGHEDGINCNVGKQPCTGKPGKMQLVEPTEADVREVKQLLKTSIVPMWIEDCSKFSKTCGDDWFRTIGAAAGIARLEHHHHHH | not soluble
2 | MFSEELIKENENIWRRFLPHKFLIEMAENTIKKENFEKWLVNDYYFVKNALRFMALLMAKAPDDLLPFFAESIYYISKELEMFEKKAQELGISLNGEIDWRAKSYVNYLLSVASLGSFLEGFTALYCEEKAYYEAWKWVRENLKERSPYQEFINHWSSQEFGEYVKRIEKILNSLAEKHGEFEKERAREVFKEVSKFELIFWDIAYGGEGNVLEHHHHHH | soluble
3 | MTTLFISDLHLDPARPAITELFLDFLRTQVPGSDALYILGDLFEAWIGDDTPSTAADAVAEALHAVATTGVPVFFMPGNRDFLVGAAYAQRAGFRILPDPTVIDLYGQPTLLMHGDLLCTDDTAYQAFRAQTRDPAFQAQFLSQPLAARVAFAQQARAASHARQSELKQGDQAQFETVTDVAPAEVDATFVRYGLDRIIHGHTHRPAIHTVQAGGRTCTRVVLGDWYEQGSVLRVDADGLALEQLALLEHHHHHH | soluble
4 | QTGGSFFEPFNSYNSGTWEKADGYSNGGVFNCTWRANNVNFTNDGKLKLGLTSSAYNKFDCAEYRSTNIYGYGLYEVSMKPAKNTGIVSSFFTYTGPAHGTQWDEIDIEFLGKDTTKVQFNYYTNGVGGHEKVISLGFDASKGFHTYAFDWQPGYIKWYVDGVLKHTATANIPSTPGKIMMNLWNGTGVDDWLGSYNGANPLYAEYDWVKYTSN | soluble
5 | MRLSFRTLQRRNALGDAPRHRSAQRRAVKTGRRASRTACDAERRTIVERAWHDSLEHHHHHH | not soluble
6 | MRLCGLLIFLSYIVYVDNAVTANFISDPRSMFPKMVRTKNAFHFLQYFMGTFRRMFRNKTEMIEHFNYYDDQVKGTDCHIQEELDFARFKSYFDRYTRTHYNPEIRIIFAIMTKDSSHMTVEFHVTSQSWFGFEDHFHMIIRAVNDENVGWGVRYLSMAFNC | not soluble
7 | MGSDKIHHHHHHMAAIPTYKLYGEKTEVSGEFLLHCETLFSRSSLYRFEIDLHRHENFLQILYISEGQGDATLDGKVIAITPPAAIVVPPLFSHGFRFSRSIKGMIITVLPAALPLAVRTSLKQALPLPLHMPLEGEPCAIEISLLMERIADEYAGAKPGRNGLLEAYLATVVLLLARQAAPDASQDLMTLTANDRRMEKLAALIAANFRSHKTAAFYAREMGLSPTHLNRLAKAGTGATLQQLIARKQLEIAQQELIFSQTSIQAIALNHGFTDPAYFTRFFTRETGLTPRAWRLAERQKLQNLSDRAQAEISAATASE | not soluble
8 | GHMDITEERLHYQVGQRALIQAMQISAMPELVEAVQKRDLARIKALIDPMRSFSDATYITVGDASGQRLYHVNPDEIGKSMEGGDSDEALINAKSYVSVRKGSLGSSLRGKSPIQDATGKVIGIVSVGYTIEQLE | soluble
9 | MEKVQSISNGTNSISYTLTRSRRKTVGIRITENGEVKVAAPLNIPDRQLKDIILKKLPWILRKQEELRKICEESRLENKFADGETFLYLGKEYTLRIAKGVLPEGVNLEENYIVVAADETKVSVNGPQYIRNVLKNFYVNQFVDIAKTRMDFFSPKIGVCPRKLTVREQKTRWGSCSSKGNISLNWKLVMAPMEVIDYVIVHELCHMKEMNHSKNYWNIVKSIIPDFELRRKWLKDNGHRLLM | soluble
10 | MDNDKKDKIILSGELTNHRFNFTKDGENGYSAYEVDRFLDQLVHTLTHYEAQRNREEEMKTAYEKLFQDRDEILKRCSKLEAELNNFYENGYSNRVLISRVQALENKIESLPSGQNDRLERIEKLLKRVIKHWTDGEDLSYGDFDDDFF | soluble
11 | MGSDKIHHHHHHMSELLAIPLKRTLEVDFATELSKLIDTTSFQTASFFQSDILKVVDARNNAIAPDISIDGLSALKEYYVILLQLEKKFPNNQIEFTWFQTLSQKSRGTSQYSLQWEKLTIIYNIGCMYSLLALNSNNDAAESLKTSCLYFQNAAGCFKHVLDHQKNLETIPVVDDATLNALTSLMLAQAQECFWFKAVQDKHKDSLIAKLSQQIVDFYCEAINDAQRGKLIRSDWINHLKAKKAYFSAVTYYRIALSFNEKKQFGNVVKALQMGLQFINESTLSSQAKFKTVVESSLKEAQRDNEFIYLQEVPSELPSIKPALMVKPSSSATLLPSIKKDETLFKDLIPIEVMEYCTAYNERQDEYVEQRVTNPLASLNKLLKESLTTFQIPQGLTKVSEAELSHYQASLNNLLINNKNVQVQLDNIEQILNEEAFTDNQLRLKHGTLNWTLPESSTTNTAYYEKLKKLRGYLDEGSAIDKQTNELFQSIDKNLIGSEIRLPESNDPLTNKIKMIIQERNDYIDRTRRKSSEYRILPKIITSYKKNGTVDFEPIFIGHLKYFDEDLRYVNSTKEENIKLIEEVNLSKKNNPGRSGIEPKKMVRIDPRELYIEDLRYSFKLLDEVKENLSAGTAFYENLITSTSNLYNEVQEYDTARRAEKARLDKSLTFEDQ | not soluble
12 | MGSDKIHHHHHHMQPSNSWVCLSALEKQVVAATASLDNRGLAYADGFFTTMGVINGQILWAEYHHQRLISHAKALQLDLDSWSLLSTLQVHAQQHRQGMLKLIITRAAQDIRGYGYTPSECGSACESWLKSLAMTVSTAEQLSLNDECSIPVQPVSTAVCLSSQIACLPPSIAGLKTLNRLDNVLASAELQGIKTRVLASNGEGDISEGLLRDMTGRWVEGTMSNVFYQLSDSRLVDSPSSEMINIPNNKSNTNYLTQGQWYTPSMAQSGVAGVMRQVIIDELSTTKYPVVVRSLQDKDLPQLQQLFFCNALRGIMPMASLTLLSGEMVGF | not soluble
13 | MADTRPERRFTRIDRLPPYVFNITAELKMAARRRGEDIIDFSMGNPDGATPPHIVEKLCTVAQRPDTHGYSTSRGIPRLRRAISRWYQDRYDVEIDPESEAIVTIGSKEGLAHLMLATLDHGDTVLVPNPSYPIHIYGAVIAGAQVRSVPLVEGVDFFNELERAIRESYPKPKMMILGFPSNPTAQCVELEFFEKVVALAKRYDVLVVHDLAYADIVYDGWKAPSIMQVPGARDVAVEFFTLSKSYNMAGWRIGFMVGNKTLVSALARIKSYHDYGTFTPLQVAAIAALEGDQQCVRDIAEQYKRRRDVLVKGLHEAGWMVEMPKASMYVWAKIPEPYAAMGSLEFAKKLLNEAKVCVSPGIGFGDYGDTHVRFALIENRDRIRQAIRGIKAMFRADGLLPASSKHIHENAE | soluble
14 | MGHHHHHHGGHMSLTTSTPSNRILVVMSSAAQIPLQDGKNHNTGYFLNEFGVPAKRLTDAGYELVIATPRGSVPGMDHNSDHDMFFKNKEEHNEIKAFVGDVLSNTTIQTTEAVAAEGTQAYAALFLPGGHAPMADLMADPALGEILRQFHAAAKPTALICHAPTALLAAQADPVAFQKGMEAGEQPSAQDFTYQGYRVTVFANDEEEATEKTFEAPMLYYPADALTQGGAQVENGEAMKPNVVRDRELLTGQNPFSDEPFVAQLLEMLGEGGS | soluble
15 | MGSDKIHHHHHHMNLVEISDIDKEILMKLEYEFPFDPQPFNIISDGLKISEEELLNRVKKLLEDGIIKRIGMYVSFRAKGMDGALIAARIPQDKIEKFRKIALGIRELTHNYVRDHPKFNIWFVLKANDRDTLNENVKELLSHVESNDYVILYSKKTLKLSVKYDVIRGVSWSPNNTIRSLSKVPTAEELGINKQLLTELSYPLKISQRPFKEIAEKYKMKEDELVELIKELYDKNVIKDYGATLNGEKIGIVENGMVLLDTSNVEQACEKLALNIPEATHVVLRESNDENWKYLCYSMIHASKKETIRNVAKEISKETNSRSYMILFSLENLKPGIVI | not soluble
16 | MATLYDVPPEELIEALTETLADEDDIEAPDWAEFTKTGVDRELPPEQEDFWTRRAASLLRKVAVDGPVGVNALRSEYGTSKQGTTRYRVRPHQKTKGSGNIIRTALQQLEDAGYVETSENDGRRVTGDGRSLLDDTAGDLLTELDRPELERYALEHHHHHH | soluble
